This note sets out measurements from PMC7790537.

Where only a bound is given, the exact number is not on record here.

In assay [1] the target is recombinant trimeric HA of A/New Caledonia/20/1999 (H1N1) (influenza A virus A/New Caledonia/20/1999 (H1N1)) (UniProt Q6WG00).
The target of assay [2] is recombinant trimeric HA of A/Victoria/210/2009 (H3N2) (influenza A virus A/Victoria/210/2009 (H3N2)).

As for “Fab-deficient (ΔFab) IgA1 monomer (domain or fragment)”, in assay [1], the HI activity, minimum HI concentration, NC20 virus is greater than 500 µg/mL. Further, in assay [2], the HI activity, minimum HI concentration, Vic210 virus amounted to 794 µg/mL and the NT activity, minimum virus-neutralizing concentration, Vic210 virus was greater than 500 µg/mL.
Consider “Fab-deficient (ΔFab) IgA2m2 monomer (domain or fragment)”, for which the HI activity, minimum HI concentration, NC20 virus in assay [1] is greater than 500 µg/mL. In assay [2], the HI activity, minimum HI concentration, Vic210 virus amounted to 500 µg/mL and the NT activity, minimum virus-neutralizing concentration, Vic210 virus is greater than 500 µg/mL.
